Where no end group is shown, it is not given here. Side-chain parts run from the residue outwards. [ ]: non-standard residue; d: D form. The star is where a group is joined. Stearoyl = CCCCCCCCCCCCCCCCCC(=O)*; Palmitoyl = CCCCCCCCCCCCCCCC(=O)*; Myristoyl = CCCCCCCCCCCCCC(=O)*; Glu = glutamate linker; Chl = cholesterol
B1: JM#181 (peptide)
peptide: M[dL]RWSRK(Palmitoyl)-NH2
modifications: N-terminus assumed
SMILES: CCCCCCCCCCCCCCCC(=O)NCCCC[C@H](NC(=O)[C@H](CCCNC(=N)N)NC(=O)[C@H](CO)NC(=O)[C@H](Cc1c[nH]c2ccccc12)NC(=O)[C@H](CCCNC(=N)N)NC(=O)[C@@H](CC(C)C)NC(=O)[C@@H](N)CCSC)C(N)=O
B2: JM#256 (peptide)
peptide: [dL]LRWSRK(Stearoyl)-NH2
modifications: N-terminus assumed
SMILES: CCCCCCCCCCCCCCCCCC(=O)NCCCC[C@H](NC(=O)[C@H](CCCNC(=N)N)NC(=O)[C@H](CO)NC(=O)[C@H](Cc1c[nH]c2ccccc12)NC(=O)[C@H](CCCNC(=N)N)NC(=O)[C@H](CC(C)C)NC(=O)[C@H](N)CC(C)C)C(N)=O
B3: JM#179 (peptide)
peptide: M[dL]RWSRK(Palmitoyl)LP-NH2
modifications: N-terminus assumed
SMILES: CCCCCCCCCCCCCCCC(=O)NCCCC[C@H](NC(=O)[C@H](CCCNC(=N)N)NC(=O)[C@H](CO)NC(=O)[C@H](Cc1c[nH]c2ccccc12)NC(=O)[C@H](CCCNC(=N)N)NC(=O)[C@@H](CC(C)C)NC(=O)[C@@H](N)CCSC)C(=O)N[C@@H](CC(C)C)C(=O)N1CCC[C@H]1C(N)=O

Target: CXC chemokine receptor type 4 (CXCR4) (human, UniProt P61073 1-352)
Sequence (P61073 whole entry): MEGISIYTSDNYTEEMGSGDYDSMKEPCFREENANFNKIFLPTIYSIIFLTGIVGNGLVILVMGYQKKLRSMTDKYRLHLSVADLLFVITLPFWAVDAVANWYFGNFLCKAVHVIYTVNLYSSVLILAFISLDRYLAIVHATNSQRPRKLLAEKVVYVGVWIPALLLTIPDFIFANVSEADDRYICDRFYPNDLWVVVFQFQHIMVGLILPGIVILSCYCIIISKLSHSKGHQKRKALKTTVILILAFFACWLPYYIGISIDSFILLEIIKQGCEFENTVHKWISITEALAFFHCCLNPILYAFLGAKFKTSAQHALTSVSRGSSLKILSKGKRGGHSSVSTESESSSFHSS
Experiment: cell-based or functional assay

| Binder | IC50, HIV inhibition assay [nM] | other results |
| --- | --- | --- |
| B1 | > 150 | – |
| Ac-ILRWSRKLPCVS [JM#185] | > 150 | – |
| ILRWSRKLPCVS (not fully specified (residue 7)) [JM#143] | > 150 | IC50, X4-HIV-1 inhibition assay: 5 nM; fold increase of anti-HIV-1 potency compared to WSC02: > 60 fold |
| ILRWSRK([Glu-Palmitoyl])MPCLS [JM#148] | > 150 | – |
| IVRWSK(Palmitoyl)K-NH2 [JM#164] | > 150 | – |
| GLRWSRKMPCVS [JM#31] | > 150 | – |
| ILRWSRK(Dec)LPCVS [JM#215] | > 150 | – |
| [dI]LRWSRK(Palmitoyl)LP-NH2 [JM#175] | > 150 | – |
| IVRWSHKVPCVS [JM#4] | > 150 | – |
| ILRWSRK(Lau)LPCVS [JM#214] | 50 to 150 | – |
| MMRWSRKMPCVS [JM#34] | 50 to 150 | – |
| IVRWSKKIPCVS [JM#6] | > 150 | – |
| ILRWSRKLPSVS [JM#122] | 50 to 150 | – |
| Ac-[dS]MRWSRKMPCVS [JM#33] | > 150 | – |
| B2 | 50 to 150 | – |
| MLRWSRKMPCVS [JM#27] | 50 to 150 | – |
| VLRWSRKLPCVS [JM#189] | > 150 | – |
| ILRWSRKVPCVS [JM#8] | 50 to 150 | – |
| IVRWSKKVPC[dV]S [JM#14] | > 150 | – |
| [dF]MRWSRKMPCVS [JM#37] | > 150 | – |
| IVRWSKKFPCVS [JM#7] | > 150 | – |

| Binder | IC50, HIV inhibition assay [nM] | other results |
| --- | --- | --- |
| IVRWSKKLPCVS [JM#5] | > 150 | – |
| IVRWSKK-NH2 [JM#110] | > 150 | – |
| IVRWSKKMPCVS [JM#12] | > 150 | – |
| [dF]LRWSRKMPCVS [JM#30] | > 150 | – |
| ILRWSRK(Chl)LPCVS [JM#184] | > 150 | – |
| Ac-[dS]LRWSRKMPCVS [JM#26] | > 150 | – |
| IFRWSHKVPCVS [JM#11] | > 150 | – |
| ILRWSRK(Stearoyl)LPCVS [JM#182] | > 150 | – |
| ILRWSHKVPCVS [JM#9] | > 150 | – |
| XMRWSRKMPCVS (d-G at position 1 (so in the source)) [JM#38] | > 150 | – |
| Ac-SMRWSRKMPCVS [JM#32] | > 150 | – |
| IVRWSRKVPCVS [JM#3] | > 150 | – |
| IFRWSKKVPCVS [JM#2] | > 150 | – |
| IYRWSRKMPCLS [JM#146] | > 150 | – |
| [dL]LRWSRKMPCVS (not fully specified (residue 7)) [JM#140] | 50 to 150 | – |
| ILRWSRKVPC[dV]S [JM#15] | > 150 | – |
| [dM]MRWSRKMPCVS [JM#35] | > 150 | – |
| [dL]LRWSRKMPCVS [JM#29] | > 150 | – |
| B3 | > 150 | – |
| IFRWSRKVPCVS [JM#10] | 50 to 150 | – |
| Ac-SLRWSRKMPCVS [JM#25] | > 150 | – |

| Binder | IC50, HIV inhibition assay [nM] | other results |
| --- | --- | --- |
| ILRWSRKLPCK([Glu-Palmitoyl])S [JM#145] | > 150 | – |
| IVRWSKKVPSVS [JM#151] | > 150 | – |
| [dL]MRWSRK(Palmitoyl)MPCVS [JM#176] | > 150 | – |
| I[dL]RWSRKMPCVS [JM#42] | > 150 | – |
| [dI]LRWSRK-NH2 [JM#173] | > 150 | – |
| IVRWSKKVP-NH2 [JM#106] | > 150 | – |
| [dL]MRWSRKMPCVS (ends and bridges not checked) [JM#36] | > 150 | IC50, HIV-1 inhibition assay: 206 nM |
| IVRWSK(Palmitoyl)KVPCVS [JM#168] | > 150 | – |
| MXRWSRKMPCVS (d-L at position 2) [JM#44] | > 150 | – |
| ILRWSRK(Palmitoyl)MPCLS [JM#149] | 50 to 150 | – |
| IXRWSRKLPCVS (d-L at position 2) [JM#41] | > 150 | – |
| ILRWSRKVPSVS [JM#23] | > 150 | – |
| XLRWSRKMPCVS (d-M at position 1) [JM#28] | > 150 | IC50, HIV-1 inhibition assay: 246 nM |
| ILRWSKKVPCVS [JM#1] | > 150 | – |
| ILRWSRKLPCVS (not fully specified (residue 7)) [JM#204] | > 150 | – |
| IVRWSKK(Palmitoyl)-NH2 [JM#165] | > 150 | – |
| ILRWSRK(Myristoyl)-NH2 [JM#262] | 50 to 150 | – |
| ILRWSRKMPSVS [JM#24] | > 150 | – |
| IIRWSRKMPCVS [JM#16] | > 150 | – |

— patent US20230131339A1, “EPI-X4 BASED PEPTIDES AND DERIVATIVES THEREOF” (Universitaet Ulm, priority 2020, published 2023)
